From patent US7504234B2, “Assays for S-adenosylmethionine (AdoMet)-dependent methyltransferase activity” (The Regents of the University of Michigan, priority 2006, dated 2009)
Each block holds one molecule with its values, some of them ahead of it.

How the values were obtained:
hSET8 = molecular target: T1, hSET8 (Homo sapiens, UniProt Q9NQR1); experiment: isothermal titration calorimetry, wild-type and mutant histone H4 peptides with hSET8; assay type: binding; details: ITC; for histone H4 binding / affinity of hSET8 for mutant histone H4 peptide: 20° C., pH 7.0, saturating AdoHcy; for AdoHcy binding: hSET8 with His-18 mutant H4 peptide
T1 construct: A construct of hSET8 encoding residues 191-352 was cloned into the parallel expression vector pHIS2; hexahistidine tag with TEV cleavage site (pHIS2 vector) (N); made in house; host or cells: Escherichia coli BL21 (DE3) Codon Plus RIL
T1 sequence (Q9NQR1 191-352 isoform Q9NQR1-2): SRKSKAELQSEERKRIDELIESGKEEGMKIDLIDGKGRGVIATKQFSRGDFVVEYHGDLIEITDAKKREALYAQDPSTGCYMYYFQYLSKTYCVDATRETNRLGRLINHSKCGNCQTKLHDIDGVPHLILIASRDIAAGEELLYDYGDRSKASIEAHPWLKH
Experimental: The equilibrium dissociation constants of wild type and mutants of hSET8 and histone H4 were determined using a VP-ITC calorimeter (MicroCal, LLC). […] A saturating concentration of AdoHcy (1.0-2.0 mM) was used in all titrations. ITC data were subsequently analyzed using Origin 7.0 (OriginLab Corp.) with blank injections of ligand into buffer subtracted from the experimental titrations prior to data analysis.

their cognate substrates = details: radiometric assay, literature values; cited from earlier work
Lys-20 in histone H4 = experiment: MALDI mass spectrometry of methyltransferase reactions (product specificity); assay type: biochemical
Experimental: Histone methyltransferase assays were performed with wildtype hSET8 and the Tyr-245 and Tyr-334 mutants (5 μM) as described above and were quenched after 15 min or 24 h by the addition of 0.5% trifluoroacetic acid. Aliquots of the samples were cocrystallized with α-cyano-4-hydroxycinnamic acid (1:1), applied on the target, and dried at room temperature. The mass spectra were acquired on the TofSpec 2E MALDI-TOF mass spectrometer (Waters, Inc.) in reflectron mode, with each spectrum representing the average of 50 laser shots. Close external calibration was used based on the following mixture: bradikinin fragment 1-8, m/z=904.41 (for [M+H]+); angiotensin II, m/z=1046.54; [Glul]-fibrinopeptide B, m/z=1570.68; ACTH (clip 18-39), m/z=2465.20.

B1: Drosophila SU(VAR)3-9: H3 Lys-9-specific histone methyltransferase (protein, UniProt P45975 1-635, looked up)
Histone-lysine …: MATAEAQIGVNRNLQKQDLSNLDVSKLTPLSPEVISRQATINIGTIGHVAHGKSTVVKAISGVQTVRFKNELERNITIKLERLSEKKIKNLLTSKQQRQQYEIKQRSMLRHLAELRRHSRFRRLCTKPASSSMPASTSSVDRRTTRRSTSQTSLSPSNSSGYGSVFGCEEHDVDKIPSLNGFAKLKRRRSSCVGAPTPNSKRSKNNMGVIAKRPPKGEYVVERIECVEMDQYQPVFFVKWLGYHDSENTWESLANVADCAEMEKFVERHQQLYETYIAKITTELEKQLEALPLMENITVAEVDAYEPLNLQIDLILLAQYRAAGSRSQREPQKIGERALKSMQIKRAQFVRRKQLADLALFEKRMNHVEKPSPPIRVENNIDLDTIDSNFMYIHDNIIGKDVPKPEAGIVGCKCTEDTEECTASTKCCARFAGELFAYERSTRRLRLRPGSAIYECNSRCSCDSSCSNRLVQHGRQVPLVLFKTANGSGWGVRAATALRKGEFVCEYIGEIITSDEANERGKAYDDNGRTYLFDLDYNTAQDSEYTIDAANYGNISHFINHSCDPNLAVFPCWIEHLNVALPHLVFFTLRPIKAGEELSFDYIRADNEDVPYENLSTAVRVECRCGRDNCRKVLF
- turnover number (their cognate substrates): 0.11 s⁻¹

B2: mouse G9A: histone H3 Lys-9/27 methyltransferase (protein, UniProt Q9Z148 1-1263, looked up)
Histone-lysine …: MRGLPRGRGLMRARGRGRAAPTGGRGRGRGGAHRGRGRPRSLLSLPRAQASWAPQLPAGLTGPPVPCLPSQGEAPAEMGALLLEKEPRGAAERVHSSLGDTPQSEETLPKANPDSLEPAGPSSPASVTVTVGDEGADTPVGAASLIGDEPESLEGDGGRIVLGHATKSFPSSPSKGGACPSRAKMSMTGAGKSPPSVQSLAMRLLSMPGAQGAATAGPEPSPATTAAQEGQPKVHRARKTMSKPSNGQPPIPEKRPPEVQHFRMSDDMHLGKVTSDVAKRRKLNSGSLSEDLGSAGGSGDIILEKGEPRPLEEWETVVGDDFSLYYDAYSVDERVDSDSKSEVEALAEQLSEEEEEEEEEEEEEEEEEEEEEEEEEDEESGNQSDRSGSSGRRKAKKKWRKDSPWVKPSRKRRKREPPRAKEPRGVNGVGSSGPSEYMEVPLGSLELPSEGTLSPNHAGVSNDTSSLETERGFEELPLCSCRMEAPKIDRISERAGHKCMATESVDGELLGCNAAILKRETMRPSSRVALMVLCEAHRARMVKHHCCPGCGYFCTAGTFLECHPDFRVAHRFHKACVSQLNGMVFCPHCGEDASEAQEVTIPRGDGGTPPIGTAAPALPPLAHDAPGRADTSQPSARMRGHGEPRRPPCDPLADTIDSSGPSLTLPNGGCLSAVGLPPGPGREALEKALVIQESERRKKLRFHPRQLYLSVKQGELQKVILMLLDNLDPNFQSDQQSKRTPLHAAAQKGSVEICHVLLQAGANINAVDKQQRTPLMEAVVNNHLEVARYMVQLGGCVYSKEEDGSTCLHHAAKIGNLEMVSLLLSTGQVDVNAQDSGGWTPIIWAAEHKHIDVIRMLLTRGADVTLTDNEENICLHWASFTGSAAIAEVLLNAQCDLHAVNYHGDTPLHIAARESYHDCVLLFLSRGANPELRNKEGDTAWDLTPERSDVWFALQLNRKLRLGVGNRAVRTEKIICRDVARGYENVPIPCVNGVDGEPCPEDYKYISENCETSTMNIDRNITHLQHCTCVDDCSSSNCLCGQLSIRCWYDKDGRLLQEFNKIEPPLIFECNQACSCWRSCKNRVVQSGIKVRLQLYRTAKMGWGVRALQTIPQGTFICEYVGELISDAEADVREDDSYLFDLDNKDGEVYCIDARYYGNISRFINHLCDPNIIPVRVFMLHQDLRFPRIAFFSSRDIRTGEELGFDYGDRFWDIKSKYFTCQCGSEKCKHSAEAIALEQSRLARLDPHPELLPDLSSLPPINT
- turnover number (their cognate substrates): 0.024 s⁻¹

B4: human SET7/9: human histone H3 Lys-4-specific methyltransferase (protein, UniProt Q8WTS6 1-366, looked up)
Histone-lysine …: MDSDDEMVEEAVEGHLDDDGLPHGFCTVTYSSTDRFEGNFVHGEKNGRGKFFFFDGSTLEGYYVDDALQGQGVYTYEDGGVLQGTYVDGELNGPAQEYDTDGRLIFKGQYKDNIRHGVCWIYYPDGGSLVGEVNEDGEMTGEKIAYVYPDERTALYGKFIDGEMIEGKLATLMSTEEGRPHFELMPGNSVYHFDKSTSSCISTNALLPDPYESERVYVAESLISSAGEGLFSKVAVGPNTVMSFYNGVRITHQEVDSRDWALNGNTLSLDEETVIDVPEPYNHVSKYCASLGHKANHSFTPNCIYDMFVHPRFGPIKCIRTLRAVEADEELTVAYGYDHSPPGKSGPEAPEWYQVELKAFQATQQK
- turnover number (their cognate substrates): 0.004 s⁻¹

Further lines, with some results ahead:

- histone H4 binding / affinity of hSET8 for mutant histone H4 peptide (hSET8): completely abolishes binding
- AdoHcy binding (hSET8): severely abrogate AdoHcy binding
Molecule: H18A: histone H4 peptide (residues 15-24) with His-18 mutated to alanine (Ac-AKRARKVLRD-NH2; UniProt P62805 16-25, looked up, variant H18A)
- histone H4 binding / affinity of hSET8 for mutant histone H4 peptide (hSET8; listed as His-18 to alanine): completely abolishes both histone H4 binding and methylation

- histone H4 binding / affinity of hSET8 for mutant histone H4 peptide (hSET8): modestly affects the affinity
- AdoHcy binding (hSET8): severely abrogate AdoHcy binding
Molecule: H18F: histone H4 peptide (residues 15-24) with His-18 mutated to phenylalanine (Ac-AKRFRKVLRD-NH2; UniProt P62805 16-25, looked up, variant H18F)
- histone H4 binding / affinity of hSET8 for mutant histone H4 peptide (hSET8; listed as His-18 to phenylalanine): does not impact the affinity to nearly the same extent as the H347F substitution

- methylation state of Lys-20 after reaction with the H4 peptide (Lys-20 in histone H4; 24 h): complete conversion to monomethyl-Lys-20
B3: wild-type hSET8: construct of hSET8 encoding residues 191-352, catalytic SET domain (protein, UniProt Q9NQR1 191-352, looked up, fragment)
chain: AAIAKQALKKPIKGKQAPRKKAQGKTQQNRKLTDFYPVRRSSRKSKAELQSEERKRIDELIESGKEEGMKIDLIDGKGRGVIATKQFSRGDFVVEYHGDLIEITDAKKREALYAQDPSTGCYMYYFQYLSKTYCVDATRETNRLGRLINHSKCGNCQTKLHD
- product specificity (Lys-20 in histone H4; MALDI mass spectrometry): bona fide histone H4 Lys-20 monomethylase
